From US20210388087A1 (Chugai, published 2021)
Changes are numbered by the printed parent chain. Names may count otherwise.

B1: CE115HA000 Y97D one-arm antibody (antibody, human IgG1, kappa, L234A L235A, N297A, name in Kabat numbering)
heavy: QVQLVESGGGVVQPGRSLRLSCAASGFTFSNAWMHWVRQAPGKGLEWVAQIKAKSNNYATYYAESVKGRFTISRDDSKNSLYLQMNSLKTEDTAVYYCRYVHDGAYYGVDAWGQGTTVTVSSASTKGPSVFPLAPSSKSTSGGTAALGCLVKDYFPEPVTVSWNSGALTSGVHTFPAVLQSSGLYSLSSVVTVPSSSLGTQTYICNVNHKPSNTKVDKKVEPKSCDKTHTCPPCPAPEAAGGPSVFLFPPKPKDTLMISRTPEVTCVVVDVSHEDPEVKFNWYVDGVEVHNAKTKPREEQYASTYRVVSVLTVLHQDWLNGKEYKCKVSNKALPAPIEKTISKAKGQPREPQVYTLPPSRCELTKNQVSLSCAVKGFYPSDIAVEWESNGQPENNYKTTPPVLDSDGSFFLVSKLTVDKSRWQQGNVFSCSVMHEALHNHYTQKSLSLSPDYKDDDDK
chain: EPKSSDKTHTCPPCPAPELLGGPSVFLFPPKPKDTLMISRTPEVTCVVVDVSHEDPEVKFNWYVDGVEVHNAKTKPREEQYNSTYRVVSVLTVLHQDWLNGKEYKCKVSNKALPAPIEKTISKAKGQPREPQVCTLPPSRDELTKNQVSLWCLVKGFYPSDIAVEWESNGQPENNYKTTPPVLDSDGSFFLYSKLTVDKSRWQQGNVFSCSVMHEALHNRYTQKSLSLSP
light: DIVMTQSPLSLPVTPGEPASISCRSSQSLVHSNRNTYLHWYQQKPGQAPRLLIYKVSNRFSGVPDRFSGSGSGTDFTLKISRVEAEDVGVYYCGQGTQVPYTFGQGTKLEIKRTVAAPSVFIFPPSDEQLKSGTASVVCLLNNFYPREAKVQWKVDNALQSGNSQESVTEQDSKDSTYSLSSTLTLSKADYEKHKVYACEVTHQGLSSPVTKSFNRGEC
B2: CE115HA000 Y100aQ one-arm antibody (antibody, human IgG1, kappa, L234A L235A, N297A, name in Kabat numbering)
heavy: B1 heavy with D103Y, Y107Q
chain: B1 chain
light: B1 light
B3: CE115HA000 Y100G one-arm antibody (antibody, human IgG1, kappa, L234A L235A, N297A, name in Kabat numbering)
heavy: B1 heavy with D103Y, Y106G
chain: B1 chain
light: B1 light
B4: CE115HA000 Y100D one-arm antibody (antibody, human IgG1, kappa, L234A L235A, N297A, name in Kabat numbering)
heavy: B1 heavy with D103Y, Y106D
chain: B1 chain
light: B1 light
B5: CE115HA000 Y97S one-arm antibody (antibody, human IgG1, kappa, L234A L235A, N297A, name in Kabat numbering)
heavy: B1 heavy with D103S
chain: B1 chain
light: B1 light
B6: CE115HA000 Y100V one-arm antibody (antibody, human IgG1, kappa, L234A L235A, N297A, name in Kabat numbering)
heavy: B1 heavy with D103Y, Y106V
chain: B1 chain
light: B1 light
B7: CE115HA000 Y100S one-arm antibody (antibody, human IgG1, kappa, L234A L235A, N297A, name in Kabat numbering)
heavy: B1 heavy with D103Y, Y106S
chain: B1 chain
light: B1 light
B8: CE115HA000 Y100aA one-arm antibody (antibody, human IgG1, kappa, L234A L235A, N297A, name in Kabat numbering)
heavy: B1 heavy with D103Y, Y107A
chain: B1 chain
light: B1 light
B9: CE115HA000 Y100aD one-arm antibody (antibody, human IgG1, kappa, L234A L235A, N297A, name in Kabat numbering)
heavy: B1 heavy with D103Y, Y107D
chain: B1 chain
light: B1 light
B10: CE115HA000 Y100A one-arm antibody (antibody, human IgG1, kappa, L234A L235A, N297A, name in Kabat numbering)
heavy: B1 heavy with D103Y, Y106A
chain: B1 chain
light: B1 light
B11: CE115HA000 Y100aL one-arm antibody (antibody, human IgG1, kappa, L234A L235A, N297A, name in Kabat numbering)
heavy: B1 heavy with D103Y, Y107L
chain: B1 chain
light: B1 light
B12: CE115HA000 Y100K one-arm antibody (antibody, human IgG1, kappa, L234A L235A, N297A, name in Kabat numbering)
heavy: B1 heavy with D103Y, Y106K
chain: B1 chain
light: B1 light
B13: CE115HA000 Y100L one-arm antibody (antibody, human IgG1, kappa, L234A L235A, N297A, name in Kabat numbering)
heavy: B1 heavy with D103Y, Y106L
chain: B1 chain
light: B1 light
B14: CE115HA000 Y100aF one-arm antibody (antibody, human IgG1, kappa, L234A L235A, N297A, name in Kabat numbering)
heavy: B1 heavy with D103Y, Y107F
chain: B1 chain
light: B1 light
B15: CE115HA000 Y100aG one-arm antibody (antibody, human IgG1, kappa, L234A L235A, N297A, name in Kabat numbering)
heavy: B1 heavy with D103Y, Y107G
chain: B1 chain
light: B1 light
B16: CE115HA000 Y100W one-arm antibody (antibody, human IgG1, kappa, L234A L235A, N297A, name in Kabat numbering)
heavy: B1 heavy with D103Y, Y106W
chain: B1 chain
light: B1 light
B17: CE115HA000 Y100Q one-arm antibody (antibody, human IgG1, kappa, L234A L235A, N297A, name in Kabat numbering)
heavy: B1 heavy with D103Y, Y106Q
chain: B1 chain
light: B1 light
B18: CE115HA000 Y100P one-arm antibody (antibody, human IgG1, kappa, L234A L235A, N297A, name in Kabat numbering)
heavy: B1 heavy with D103Y, Y106P
chain: B1 chain
light: B1 light
B19: CE115HA000 Y97G one-arm antibody (antibody, human IgG1, kappa, L234A L235A, N297A, name in Kabat numbering)
heavy: B1 heavy with D103G
chain: B1 chain
light: B1 light
B20: CE115HA000 Y97P one-arm antibody (antibody, human IgG1, kappa, L234A L235A, N297A, name in Kabat numbering)
heavy: B1 heavy with D103P
chain: B1 chain
light: B1 light
B21: CE115HA000 Y100aS one-arm antibody (antibody, human IgG1, kappa, L234A L235A, N297A, name in Kabat numbering)
heavy: B1 heavy with D103Y, Y107S
chain: B1 chain
light: B1 light
B22: CE115HA000 Y97R one-arm antibody (antibody, human IgG1, kappa, L234A L235A, N297A, name in Kabat numbering)
heavy: B1 heavy with D103R
chain: B1 chain
light: B1 light
B23: CE115HA000 Y100aK one-arm antibody (antibody, human IgG1, kappa, L234A L235A, N297A, name in Kabat numbering)
heavy: B1 heavy with D103Y, Y107K
chain: B1 chain
light: B1 light
B24: CE115HA000 H35A (antibody, human IgG1, kappa, L234A L235A, N297A, name in Kabat numbering)
heavy: B1 heavy with H35A, D103Y
chain: B1 chain
light: B1 light
notes: one-arm antibody
B25: CE115HA000 A52aP (antibody, human IgG1, kappa, L234A L235A, N297A, name in Kabat numbering)
heavy: B1 heavy with A53P, D103Y
chain: B1 chain
light: B1 light
notes: one-arm antibody
B26: CE115HA000 A32Y (antibody, human IgG1, kappa, L234A L235A, N297A, name in Kabat numbering)
heavy: B1 heavy with A32Y, D103Y
chain: B1 chain
light: B1 light
notes: one-arm antibody
B27: CE115HA000 A52aG (antibody, human IgG1, kappa, L234A L235A, N297A, name in Kabat numbering)
heavy: B1 heavy with A53G, D103Y
chain: B1 chain
light: B1 light
notes: one-arm antibody
B28: CE115HA000 A52aV (antibody, human IgG1, kappa, L234A L235A, N297A, name in Kabat numbering)
heavy: B1 heavy with A53V, D103Y
chain: B1 chain
light: B1 light
notes: one-arm antibody
B29: CE115HA000 A52aS (antibody, human IgG1, kappa, L234A L235A, N297A, name in Kabat numbering)
heavy: B1 heavy with A53S, D103Y
chain: B1 chain
light: B1 light
notes: one-arm antibody
B30: CE115HA000 A52aE (antibody, human IgG1, kappa, L234A L235A, N297A, name in Kabat numbering)
heavy: B1 heavy with A53E, D103Y
chain: B1 chain
light: B1 light
notes: one-arm antibody
B31: CE115HA000 A52aD (antibody, human IgG1, kappa, L234A L235A, N297A, name in Kabat numbering)
heavy: B1 heavy with A53D, D103Y
chain: B1 chain
light: B1 light
notes: one-arm antibody

These binders were tested against T1, CD3 epsilon homodimer protein (UniProt P07766 23-126) (assay: SPR (Biacore T200), CD3 epsilon homodimer on CM4 chip, one-arm antibody as analyte, 25 C;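 further: homodimer attached to the sensor surface via amine coupling, HBS-EP+ used as running buffer during binding runs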).
T1 construct: immobilized on Sensor chip CM4 by amine coupling; also called CD3 (CD3 epsilon)
T1 sequence (P07766 23-126): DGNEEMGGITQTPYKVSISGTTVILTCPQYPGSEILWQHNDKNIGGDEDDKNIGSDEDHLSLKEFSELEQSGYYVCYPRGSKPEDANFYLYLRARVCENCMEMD
For B1, the “ratio of amounts bound (altered form / CE115HA000)” value was 0.24.
With B2 the “ratio of amounts bound (altered form / CE115HA000)” value was 0.56.
With B3 the “ratio of amounts bound (altered form / CE115HA000)” value was 1.07.
B4 was tested, and the “ratio of amounts bound (altered form / CE115HA000)” value was 0.52.
In the case of B5, the “ratio of amounts bound (altered form / CE115HA000)” value is reported as 0.18.
With B6 the “ratio of amounts bound (altered form / CE115HA000)” value was 0.6.
With B7 the “ratio of amounts bound (altered form / CE115HA000)” value was 0.81.
With B8 the “ratio of amounts bound (altered form / CE115HA000)” value was 0.62.
With B9 the “ratio of amounts bound (altered form / CE115HA000)” value was 0.31.
With B10 the “ratio of amounts bound (altered form / CE115HA000)” value was 0.9.
In the case of B11, the “ratio of amounts bound (altered form / CE115HA000)” value is reported as 0.48.
B12 was tested, and the “ratio of amounts bound (altered form / CE115HA000)” value was 1.07.
B13 was tested, and the “ratio of amounts bound (altered form / CE115HA000)” value was 0.7.
For B14, the “ratio of amounts bound (altered form / CE115HA000)” value was 0.87.
In the case of B15, the “ratio of amounts bound (altered form / CE115HA000)” value is reported as 1.23.
With B16 the “ratio of amounts bound (altered form / CE115HA000)” value was 1.03.
With B17 the “ratio of amounts bound (altered form / CE115HA000)” value was 0.8.
With B18 the “ratio of amounts bound (altered form / CE115HA000)” value was 0.48.
In the case of B19, the “ratio of amounts bound (altered form / CE115HA000)” value is reported as 0.18.
In the case of B20, the “ratio of amounts bound (altered form / CE115HA000)” value is reported as 0.11.
For B21, the “ratio of amounts bound (altered form / CE115HA000)” value was 0.64.
B22 was tested, and the “ratio of amounts bound (altered form / CE115HA000)” value was 0.27.
With B23 the “ratio of amounts bound (altered form / CE115HA000)” value was 0.9.

The binders below were run against T2, CD3 epsilon homodimer protein (UniProt P07766 23-126) (assay: SPR, CD3 epsilon homodimer on chip, one-arm antibody as analyte;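 further: surface plasmon resonance at 25 °C with CD3 epsilon homodimer amine-coupled to a CM4 sensor chip, antibody injected as analyte, HBS-EP+ as running buffer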).
T2 construct: also called CD3 (CD3 epsilon)
T2 sequence (P07766 23-126): as above
Procedure: An appropriate amount of CD3 epsilon homodimer protein was immobilized onto Sensor chip CM4 (GE Healthcare Japan Corp.) by the amine coupling method. Then, the antibody having an appropriate concentration was injected thereto as an analyte and allowed to interact with the CD3 epsilon homodimer protein on the sensor chip. Then, the sensor chip was regenerated by the injection of 10 mmol/L glycine-HCl (pH 1.5). The assay was conducted at 25 degrees C., and HBS-EP+(GE Healthcare Japan Corp.) was used as a running buffer. […] Each parameter was calculated using Biacore T200 Evaluation Software (GE Healthcare Japan Corp.).
For B24, the “KD ratio (KD of CE115HA000/KD of altered form)” value (“KD ratio” for short) was 25.
B25 was tested, and the “KD ratio” value was 5.
B26 was tested, and the “KD ratio” value was 2.11.
For B27, the “KD ratio” value was 0.61.
In the case of B28, the “KD ratio” value is reported as 0.95.
In the case of B29, the “KD ratio” value is reported as 0.82.
In the case of B30, the “KD ratio” value is reported as 0.89.
For B31, the “KD ratio” value was 1.35.
